*1 amine or outer side, *2 acyl side, *3 side chain or, on linkers, in order; H or OH if unused. Side-chain parts run from the residue outwards. [ ]: non-standard residue; d: D form. The star is where a group is joined. C16 diacid = O=C(O)CCCCCCCCCCCCCCC(=O)*; γGlu = O=C(O)[C@H](CCC(=O)[*:2])N[*:1]; Api = NC1(C(=O)O)CCNCC1; Aib = CC(C)(N)C(=O)O; Propionyl = CCC(=O)*; Butyryl = CCCC(=O)*

One assay has as its target T1, CRF1R receptor (UniProt P34998 24-415, limits assumed).
T1 sequence (looked up): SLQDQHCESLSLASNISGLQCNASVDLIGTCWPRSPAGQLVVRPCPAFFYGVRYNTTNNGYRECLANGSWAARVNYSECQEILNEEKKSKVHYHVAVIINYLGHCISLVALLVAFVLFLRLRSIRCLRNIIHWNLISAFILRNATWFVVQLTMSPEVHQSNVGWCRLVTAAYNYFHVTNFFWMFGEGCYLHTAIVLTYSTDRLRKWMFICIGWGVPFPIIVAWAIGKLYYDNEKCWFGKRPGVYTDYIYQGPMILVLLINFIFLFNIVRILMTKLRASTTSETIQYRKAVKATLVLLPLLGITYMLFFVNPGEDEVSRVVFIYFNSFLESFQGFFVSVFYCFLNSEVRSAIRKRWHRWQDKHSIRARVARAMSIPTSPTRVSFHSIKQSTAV
Nature of the assay: cell-based or functional assay.

The target in assay [1] is human corticotropin-releasing factor 2a (CRF2a receptor) (human), Q13324. Briefly: cell-based or functional assay.
human corticotropin-releasing factor 2a (CRF2a receptor) (human), Q13324, sequence (Q13324 20-411): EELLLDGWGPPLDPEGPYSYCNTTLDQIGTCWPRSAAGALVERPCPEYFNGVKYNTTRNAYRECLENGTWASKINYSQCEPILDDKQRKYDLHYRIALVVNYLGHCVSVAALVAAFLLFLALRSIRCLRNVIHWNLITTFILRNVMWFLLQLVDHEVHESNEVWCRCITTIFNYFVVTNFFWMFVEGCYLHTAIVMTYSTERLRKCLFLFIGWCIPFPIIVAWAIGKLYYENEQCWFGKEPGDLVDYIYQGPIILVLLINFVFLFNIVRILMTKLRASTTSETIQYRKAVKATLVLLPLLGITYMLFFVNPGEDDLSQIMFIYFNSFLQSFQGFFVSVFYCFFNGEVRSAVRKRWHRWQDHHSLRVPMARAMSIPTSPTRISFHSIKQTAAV

B1: SEQ ID NO 57 (peptide)
peptide: Ac-IVLSLD[dV]PIKLK([γGlu-C16 diacid])KILLEQEKQKKQREQAETN[Api]QILAQV-NH2
SMILES: CC[C@H](C)[C@H](NC(C)=O)C(=O)N[C@H](C(=O)N[C@@H](CC(C)C)C(=O)N[C@@H](CO)C(=O)N[C@@H](CC(C)C)C(=O)N[C@@H](CC(=O)O)C(=O)N[C@@H](C(=O)N1CCC[C@H]1C(=O)N[C@H](C(=O)N[C@@H](CCCCN)C(=O)N[C@@H](CC(C)C)C(=O)N[C@@H](CCCCNC(=O)CC[C@H](NC(=O)CCCCCCCCCCCCCCC(=O)O)C(=O)O)C(=O)N[C@@H](CCCCN)C(=O)N[C@H](C(=O)N[C@@H](CC(C)C)C(=O)N[C@@H](CC(C)C)C(=O)N[C@@H](CCC(=O)O)C(=O)N[C@@H](CCC(N)=O)C(=O)N[C@@H](CCC(=O)O)C(=O)N[C@@H](CCCCN)C(=O)N[C@@H](CCC(N)=O)C(=O)N[C@@H](CCCCN)C(=O)N[C@@H](CCCCN)C(=O)N[C@@H](CCC(N)=O)C(=O)N[C@@H](CCCNC(=N)N)C(=O)N[C@@H](CCC(=O)O)C(=O)N[C@@H](CCC(N)=O)C(=O)N[C@@H](C)C(=O)N[C@@H](CCC(=O)O)C(=O)N[C@H](C(=O)N[C@@H](CC(N)=O)C(=O)NC1(C(=O)N[C@@H](CCC(N)=O)C(=O)N[C@H](C(=O)N[C@@H](CC(C)C)C(=O)N[C@@H](C)C(=O)N[C@@H](CCC(N)=O)C(=O)N[C@H](C(N)=O)C(C)C)[C@@H](C)CC)CCNCC1)[C@@H](C)O)[C@@H](C)CC)[C@@H](C)CC)C(C)C)C(C)C
With B1, in the assay with CRF1R receptor, the “Emax (% I)” value amounted to 24%. Also, in assay [1], the EC50 [nM] (cAMP) was determined as 0.39 nM.

B2: SEQ ID NO 79 (peptide)
peptide: Butyryl-VLSLD[dV]PIKLK([γGlu-C16 diacid])KILLEQEKQKKQREQAETN[Aib]QILAQV-NH2
SMILES: CCCC(=O)N[C@H](C(=O)N[C@@H](CC(C)C)C(=O)N[C@@H](CO)C(=O)N[C@@H](CC(C)C)C(=O)N[C@@H](CC(=O)O)C(=O)N[C@@H](C(=O)N1CCC[C@H]1C(=O)N[C@H](C(=O)N[C@@H](CCCCN)C(=O)N[C@@H](CC(C)C)C(=O)N[C@@H](CCCCNC(=O)CC[C@H](NC(=O)CCCCCCCCCCCCCCC(=O)O)C(=O)O)C(=O)N[C@@H](CCCCN)C(=O)N[C@H](C(=O)N[C@@H](CC(C)C)C(=O)N[C@@H](CC(C)C)C(=O)N[C@@H](CCC(=O)O)C(=O)N[C@@H](CCC(N)=O)C(=O)N[C@@H](CCC(=O)O)C(=O)N[C@@H](CCCCN)C(=O)N[C@@H](CCC(N)=O)C(=O)N[C@@H](CCCCN)C(=O)N[C@@H](CCCCN)C(=O)N[C@@H](CCC(N)=O)C(=O)N[C@@H](CCCNC(=N)N)C(=O)N[C@@H](CCC(=O)O)C(=O)N[C@@H](CCC(N)=O)C(=O)N[C@@H](C)C(=O)N[C@@H](CCC(=O)O)C(=O)N[C@H](C(=O)N[C@@H](CC(N)=O)C(=O)NC(C)(C)C(=O)N[C@@H](CCC(N)=O)C(=O)N[C@H](C(=O)N[C@@H](CC(C)C)C(=O)N[C@@H](C)C(=O)N[C@@H](CCC(N)=O)C(=O)N[C@H](C(N)=O)C(C)C)[C@@H](C)CC)[C@@H](C)O)[C@@H](C)CC)[C@@H](C)CC)C(C)C)C(C)C
As to B2, the “Emax (% I)” value with CRF1R receptor came out at 10%. The EC50 [nM] (cAMP) in assay [1] was found to be 0.38 nM.

B3: SEQ ID NO 47 (peptide)
peptide: Ac-IVLSLD[dV]PIKLK([γGlu-C16 diacid])KILLEQEKQKKQREQAETNAQILAQV-NH2
SMILES: CC[C@H](C)[C@H](NC(C)=O)C(=O)N[C@H](C(=O)N[C@@H](CC(C)C)C(=O)N[C@@H](CO)C(=O)N[C@@H](CC(C)C)C(=O)N[C@@H](CC(=O)O)C(=O)N[C@@H](C(=O)N1CCC[C@H]1C(=O)N[C@H](C(=O)N[C@@H](CCCCN)C(=O)N[C@@H](CC(C)C)C(=O)N[C@@H](CCCCNC(=O)CC[C@H](NC(=O)CCCCCCCCCCCCCCC(=O)O)C(=O)O)C(=O)N[C@@H](CCCCN)C(=O)N[C@H](C(=O)N[C@@H](CC(C)C)C(=O)N[C@@H](CC(C)C)C(=O)N[C@@H](CCC(=O)O)C(=O)N[C@@H](CCC(N)=O)C(=O)N[C@@H](CCC(=O)O)C(=O)N[C@@H](CCCCN)C(=O)N[C@@H](CCC(N)=O)C(=O)N[C@@H](CCCCN)C(=O)N[C@@H](CCCCN)C(=O)N[C@@H](CCC(N)=O)C(=O)N[C@@H](CCCNC(=N)N)C(=O)N[C@@H](CCC(=O)O)C(=O)N[C@@H](CCC(N)=O)C(=O)N[C@@H](C)C(=O)N[C@@H](CCC(=O)O)C(=O)N[C@H](C(=O)N[C@@H](CC(N)=O)C(=O)N[C@@H](C)C(=O)N[C@@H](CCC(N)=O)C(=O)N[C@H](C(=O)N[C@@H](CC(C)C)C(=O)N[C@@H](C)C(=O)N[C@@H](CCC(N)=O)C(=O)N[C@H](C(N)=O)C(C)C)[C@@H](C)CC)[C@@H](C)O)[C@@H](C)CC)[C@@H](C)CC)C(C)C)C(C)C
For B3, in the assay with CRF1R receptor, the “Emax (% I)” value came out at 10%. The molecule also gave an EC50 [nM] (cAMP) in assay [1] of 0.09 nM.

B4: SEQ ID NO 21 (peptide)
peptide: Ac-IVLSLD[dV]PIKLK([γGlu-C16 diacid])KILLKQERQKKQREQAEKN[Aib]QILEQV-NH2
SMILES: CC[C@H](C)[C@H](NC(C)=O)C(=O)N[C@H](C(=O)N[C@@H](CC(C)C)C(=O)N[C@@H](CO)C(=O)N[C@@H](CC(C)C)C(=O)N[C@@H](CC(=O)O)C(=O)N[C@@H](C(=O)N1CCC[C@H]1C(=O)N[C@H](C(=O)N[C@@H](CCCCN)C(=O)N[C@@H](CC(C)C)C(=O)N[C@@H](CCCCNC(=O)CC[C@H](NC(=O)CCCCCCCCCCCCCCC(=O)O)C(=O)O)C(=O)N[C@@H](CCCCN)C(=O)N[C@H](C(=O)N[C@@H](CC(C)C)C(=O)N[C@@H](CC(C)C)C(=O)N[C@@H](CCCCN)C(=O)N[C@@H](CCC(N)=O)C(=O)N[C@@H](CCC(=O)O)C(=O)N[C@@H](CCCNC(=N)N)C(=O)N[C@@H](CCC(N)=O)C(=O)N[C@@H](CCCCN)C(=O)N[C@@H](CCCCN)C(=O)N[C@@H](CCC(N)=O)C(=O)N[C@@H](CCCNC(=N)N)C(=O)N[C@@H](CCC(=O)O)C(=O)N[C@@H](CCC(N)=O)C(=O)N[C@@H](C)C(=O)N[C@@H](CCC(=O)O)C(=O)N[C@@H](CCCCN)C(=O)N[C@@H](CC(N)=O)C(=O)NC(C)(C)C(=O)N[C@@H](CCC(N)=O)C(=O)N[C@H](C(=O)N[C@@H](CC(C)C)C(=O)N[C@@H](CCC(=O)O)C(=O)N[C@@H](CCC(N)=O)C(=O)N[C@H](C(N)=O)C(C)C)[C@@H](C)CC)[C@@H](C)CC)[C@@H](C)CC)C(C)C)C(C)C
Turning to B4, in the assay with CRF1R receptor, the “Emax (% I)” value was 5%. Moreover, the EC50 [nM] (cAMP) in assay [1] was 0.34 nM.

B5: SEQ ID NO 56 (peptide)
peptide: Ac-IVLSLD[dV]PIKLK([γGlu-C16 diacid])KILLEQEKQKKQREQAETNEQILAQV-NH2
SMILES: CC[C@H](C)[C@H](NC(C)=O)C(=O)N[C@H](C(=O)N[C@@H](CC(C)C)C(=O)N[C@@H](CO)C(=O)N[C@@H](CC(C)C)C(=O)N[C@@H](CC(=O)O)C(=O)N[C@@H](C(=O)N1CCC[C@H]1C(=O)N[C@H](C(=O)N[C@@H](CCCCN)C(=O)N[C@@H](CC(C)C)C(=O)N[C@@H](CCCCNC(=O)CC[C@H](NC(=O)CCCCCCCCCCCCCCC(=O)O)C(=O)O)C(=O)N[C@@H](CCCCN)C(=O)N[C@H](C(=O)N[C@@H](CC(C)C)C(=O)N[C@@H](CC(C)C)C(=O)N[C@@H](CCC(=O)O)C(=O)N[C@@H](CCC(N)=O)C(=O)N[C@@H](CCC(=O)O)C(=O)N[C@@H](CCCCN)C(=O)N[C@@H](CCC(N)=O)C(=O)N[C@@H](CCCCN)C(=O)N[C@@H](CCCCN)C(=O)N[C@@H](CCC(N)=O)C(=O)N[C@@H](CCCNC(=N)N)C(=O)N[C@@H](CCC(=O)O)C(=O)N[C@@H](CCC(N)=O)C(=O)N[C@@H](C)C(=O)N[C@@H](CCC(=O)O)C(=O)N[C@H](C(=O)N[C@@H](CC(N)=O)C(=O)N[C@@H](CCC(=O)O)C(=O)N[C@@H](CCC(N)=O)C(=O)N[C@H](C(=O)N[C@@H](CC(C)C)C(=O)N[C@@H](C)C(=O)N[C@@H](CCC(N)=O)C(=O)N[C@H](C(N)=O)C(C)C)[C@@H](C)CC)[C@@H](C)O)[C@@H](C)CC)[C@@H](C)CC)C(C)C)C(C)C
For B5, the “Emax (% I)” value with CRF1R receptor was 3%. In assay [1], this molecule registered an EC50 [nM] (cAMP) of 0.3 nM.

B6: SEQ ID NO 78 (peptide)
peptide: Propionyl-VLSLD[dV]PIKLK([γGlu-C16 diacid])KILLEQEKQKKQREQAETN[Aib]QILAQV-NH2
SMILES: CCC(=O)N[C@H](C(=O)N[C@@H](CC(C)C)C(=O)N[C@@H](CO)C(=O)N[C@@H](CC(C)C)C(=O)N[C@@H](CC(=O)O)C(=O)N[C@@H](C(=O)N1CCC[C@H]1C(=O)N[C@H](C(=O)N[C@@H](CCCCN)C(=O)N[C@@H](CC(C)C)C(=O)N[C@@H](CCCCNC(=O)CC[C@H](NC(=O)CCCCCCCCCCCCCCC(=O)O)C(=O)O)C(=O)N[C@@H](CCCCN)C(=O)N[C@H](C(=O)N[C@@H](CC(C)C)C(=O)N[C@@H](CC(C)C)C(=O)N[C@@H](CCC(=O)O)C(=O)N[C@@H](CCC(N)=O)C(=O)N[C@@H](CCC(=O)O)C(=O)N[C@@H](CCCCN)C(=O)N[C@@H](CCC(N)=O)C(=O)N[C@@H](CCCCN)C(=O)N[C@@H](CCCCN)C(=O)N[C@@H](CCC(N)=O)C(=O)N[C@@H](CCCNC(=N)N)C(=O)N[C@@H](CCC(=O)O)C(=O)N[C@@H](CCC(N)=O)C(=O)N[C@@H](C)C(=O)N[C@@H](CCC(=O)O)C(=O)N[C@H](C(=O)N[C@@H](CC(N)=O)C(=O)NC(C)(C)C(=O)N[C@@H](CCC(N)=O)C(=O)N[C@H](C(=O)N[C@@H](CC(C)C)C(=O)N[C@@H](C)C(=O)N[C@@H](CCC(N)=O)C(=O)N[C@H](C(N)=O)C(C)C)[C@@H](C)CC)[C@@H](C)O)[C@@H](C)CC)[C@@H](C)CC)C(C)C)C(C)C
B6: the “Emax (% I)” value with CRF1R receptor stood at 7%. In assay [1], the EC50 [nM] (cAMP) is 0.73 nM.

The record behind these values is patent US20260001928A1 (CORTERIA PHARMACEUTICALS, priority 2022, published 2026).
